{"source": "patent US20250276077A1", "about": "“EPHA2 ANTIBODIES” (Immunome, Inc., priority 2022, published 2025)", "target": "T1, human 4-1BB (Homo sapiens, UniProt Q07011)", "T1 construct": "host or cells: 4-1BB reporter cells of the Promega bioassay, alone or co-cultured with tumor cells (A549, MDA-MB-231, CT26, PC3, SKOV3)", "T1 sequence (Q07011 24-255)": "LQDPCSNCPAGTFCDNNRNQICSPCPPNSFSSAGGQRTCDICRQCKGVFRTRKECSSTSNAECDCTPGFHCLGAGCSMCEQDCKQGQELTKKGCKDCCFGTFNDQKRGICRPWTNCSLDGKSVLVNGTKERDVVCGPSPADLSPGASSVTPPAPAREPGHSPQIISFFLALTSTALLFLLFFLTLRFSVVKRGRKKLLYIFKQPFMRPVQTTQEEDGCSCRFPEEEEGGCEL", "assay": "4-1BB activation, inducible reporter cell system with or without tumor cells", "type": "cell-based", "settings": "reporter cells alone or co-cultured with A549 tumor cells; 5 hours", "procedure": "After confirming that they retained the ability to bind to PC3 cells, the EphA2-4-1BB bispecific antibodies were assayed for their ability to activate human 4-1BB using an inducible reporter cell system (Promega cat JA2351). […] reporter cells were either cultured alone with the EphA2-4-1BB bispecific antibodies or co-cultured with A549 tumor cells that had been treated with the EphA2-4-1BB bispecific antibodies. The 4-1BB antibody Urelumab (AB-009811) was included as a non-tumor targeting control. After 5 hours of culture, 4-1BB activation was determined from the reporter cells by measuring bioluminescence output.\nThe activation assay was repeated using MDA-MB-231, CT26, or PC3 tumor cells. […] FIG. 19A-D.\nConstructs that comprise AB-008873 fused with h41BBL (THD)3-2 were generated and assayed for the ability to activate 4-1BB for tumor cell lines A549, MDA-MB231, SKOV3, and PC3, as described above for the EphA2-4-1BB bispecific antibodies. AB-009811 was included as a positive control and 5554-41BBL (THD) 3-10 or 5554-41BBL (THD) 3-2 was used as a negative control. […] FIG. 19E.", "data": [{"substance": "Urelumab: 4-1BB antibody included as a non-tumor targeting control", "values": [{"measurement": "4-1BB activation with and without tumor cells", "result": "activated 4-1BB with us without the presence of tumor cells"}]}]}
